Reference: patent US20200174002A1 (ONCOTHERAPY SCIENCE, published 2020)

Tests used:
[1] = molecular target: T1, soluble FZD10 protein without the signal peptide (the region of amino acids 21 to 161) (human, UniProt Q9ULW2 21-161); experiment: ELISA screening of hybridomas on soluble FZD10 protein
T1 construct: Immunogen and ELISA screening antigen; also called recombinant human FZD10 protein; N-terminal extracellular domain peptide of FZD10
T1 sequence: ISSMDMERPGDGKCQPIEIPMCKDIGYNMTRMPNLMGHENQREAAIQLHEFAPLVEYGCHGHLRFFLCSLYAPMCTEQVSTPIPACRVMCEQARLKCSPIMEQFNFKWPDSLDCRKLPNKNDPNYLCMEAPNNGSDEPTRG

[2] = molecular target: T2, full length FZD10 protein (human) (human, UniProt Q9ULW2 21-581); experiment: immunohistochemical staining, paraffin section of a clinical lung cancer specimen
T2 construct: Live cells in flow cytometry; formalin-fixed paraffin sections in IHC
T2 sequence: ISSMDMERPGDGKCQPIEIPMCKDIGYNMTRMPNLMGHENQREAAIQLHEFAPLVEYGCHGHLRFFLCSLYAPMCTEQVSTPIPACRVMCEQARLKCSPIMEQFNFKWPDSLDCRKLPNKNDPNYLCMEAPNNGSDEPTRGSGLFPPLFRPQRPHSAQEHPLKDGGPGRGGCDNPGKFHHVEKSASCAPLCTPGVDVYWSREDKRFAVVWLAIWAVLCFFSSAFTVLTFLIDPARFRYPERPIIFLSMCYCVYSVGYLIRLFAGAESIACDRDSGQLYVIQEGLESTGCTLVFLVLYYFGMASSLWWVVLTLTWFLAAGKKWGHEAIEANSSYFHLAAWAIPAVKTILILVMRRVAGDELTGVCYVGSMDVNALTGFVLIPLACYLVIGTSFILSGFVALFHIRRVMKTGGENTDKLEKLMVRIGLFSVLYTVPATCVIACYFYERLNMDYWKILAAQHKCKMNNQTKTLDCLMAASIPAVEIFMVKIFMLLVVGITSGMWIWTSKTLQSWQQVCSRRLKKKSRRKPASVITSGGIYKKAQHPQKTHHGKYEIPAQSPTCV
Experimental: For antigen retrieval treatment, sections immersed in Antigen Retrieval Solution pH9 (Nichirei Biosciences Inc.) were incubated at 125° C. for 30 seconds for FZD10/DLD1 and Mock/DLD1, and at 95° C. for 40 minutes for SYO1, T.T, H727, LoVo, COLO201, and clinical specimens. After incubation, they were allowed to stand at room temperature for 20 minutes, and then washed with running water for five minutes. The sections were immersed in 3.0% hydrogen peroxide for ten minutes to block endogenous peroxidases, and washed with Wash Buffer (TBS-T(Takara Bio)) for five minutes three times. Furthermore, to block nonspecific reactions, an appropriate amount of Protein Block Solution (Dako) was added dropwise onto the sections, and they were allowed to stand for ten minutes. […]
The specificity of the anti-FZD10 antibody of the present invention (10A8H4G4) in immunohistochemical staining was evaluated using paraffin sections prepared from mouse xenograft tumors of cancer cell lines and clinical lung cancer specimens. The expression of FZD10 protein and RNA in paraffin sections prepared from mouse xenograft tumors of SYO-1 and COLO201 and in cancerous and non-cancerous regions of clinical lung cancer specimens 1 to 6 was detected by immunohistochemical staining and real-time PCR, respectively, and the results are shown in FIG. 4.

binding result [1]: binds
binding result [2]: binds
B1: anti-FZD10 antibody (10A8H4G4) (antibody, V domains shown)
VH: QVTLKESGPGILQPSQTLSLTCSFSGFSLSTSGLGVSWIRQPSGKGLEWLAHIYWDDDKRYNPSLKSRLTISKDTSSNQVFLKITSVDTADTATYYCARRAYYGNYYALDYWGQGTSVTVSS
VL: DIVMTQSPSSLTVTAGEKVTMSCKSSQSLLNSGNQKNYLTWYQQKPGQPPKLLIYWASTRKSGVPDRFTGSGSGTDFTLTISSVQAEDLAVYYCQNDYSYPVTFGAGTKLELKR
notes: Mouse monoclonal antibody from hybridoma 10A8H4G4, purified from culture fluid on a Protein A column; it was detected with anti-mouse IgG (H+L); also called clone 10A8H4G4; FZD10Ab(10A8H4G4)
